T1: human DLL3 expressed on cells (human DLL3/BaF3) (human, UniProt Q9NYJ7 27-618)
T1 construct: Full-length human DLL3 on the membrane of transformed Ba/F3 cells; The ADCC assays also used NCI-H1184 small-cell lung cancer cells that express DLL3; also called Delta-like 3; NM_016941
T1 sequence: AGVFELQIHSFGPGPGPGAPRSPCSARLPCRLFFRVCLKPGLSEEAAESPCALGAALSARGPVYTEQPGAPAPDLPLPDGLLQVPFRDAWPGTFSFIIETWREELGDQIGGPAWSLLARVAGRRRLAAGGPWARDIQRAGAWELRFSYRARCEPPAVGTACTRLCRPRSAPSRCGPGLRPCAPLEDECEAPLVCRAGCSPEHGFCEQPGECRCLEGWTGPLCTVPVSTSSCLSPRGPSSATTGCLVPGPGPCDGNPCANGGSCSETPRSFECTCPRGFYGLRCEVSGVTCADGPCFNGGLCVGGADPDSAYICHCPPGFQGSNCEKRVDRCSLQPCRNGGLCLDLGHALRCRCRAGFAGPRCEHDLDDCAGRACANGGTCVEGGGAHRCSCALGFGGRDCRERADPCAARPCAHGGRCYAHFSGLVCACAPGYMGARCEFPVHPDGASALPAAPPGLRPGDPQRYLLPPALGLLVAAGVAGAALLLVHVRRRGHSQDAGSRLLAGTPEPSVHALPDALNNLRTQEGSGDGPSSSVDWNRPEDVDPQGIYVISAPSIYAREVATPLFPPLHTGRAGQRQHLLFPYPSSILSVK

T2: human DLL3-Fc (human)
T2 construct: also called soluble DLL3 protein
T2 chain: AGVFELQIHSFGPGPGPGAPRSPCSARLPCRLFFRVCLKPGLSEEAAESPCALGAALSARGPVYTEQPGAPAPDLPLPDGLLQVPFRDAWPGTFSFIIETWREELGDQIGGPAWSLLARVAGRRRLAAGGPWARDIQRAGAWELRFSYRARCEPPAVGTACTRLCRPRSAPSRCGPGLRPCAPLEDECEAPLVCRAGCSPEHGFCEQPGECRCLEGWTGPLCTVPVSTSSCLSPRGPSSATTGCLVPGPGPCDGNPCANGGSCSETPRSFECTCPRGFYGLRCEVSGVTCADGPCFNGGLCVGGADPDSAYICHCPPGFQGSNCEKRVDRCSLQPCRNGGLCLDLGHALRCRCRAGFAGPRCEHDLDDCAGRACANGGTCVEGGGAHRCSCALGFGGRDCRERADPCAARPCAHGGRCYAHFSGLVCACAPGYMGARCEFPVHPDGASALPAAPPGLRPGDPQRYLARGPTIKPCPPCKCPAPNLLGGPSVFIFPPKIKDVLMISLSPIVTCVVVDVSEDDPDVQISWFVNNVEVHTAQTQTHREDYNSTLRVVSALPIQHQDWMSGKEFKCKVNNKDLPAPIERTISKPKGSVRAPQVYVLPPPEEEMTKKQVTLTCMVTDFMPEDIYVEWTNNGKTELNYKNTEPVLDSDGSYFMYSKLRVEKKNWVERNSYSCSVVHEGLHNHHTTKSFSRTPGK

B1: DL312 mouse monoclonal antibody (antibody, mouse IgG1, kappa)
heavy: EVKLVESGGGLVQPGGSLSLSCAASGFTFTDYYMNWVRQPPGKALEWLALIRNKANGYTTEYNASVKGRFTISRDNSQNILYLQMNALRAEDSATYYCARDSDGYYEYYFDYWGQGTTLTVSSAKTTPPSVYPLAPGSAAQTNSMVTLGCLVKGYFPEPVTVTWNSGSLSSGVHTFPAVLQSDLYTLSSSVTVPSSTWPSETVTCNVAHPASSTKVDKKIVPRDCGCKPCICTVPEVSSVFIFPPKPKDVLTITLTPKVTCVVVDISKDDPEVQFSWFVDDVEVHTAQTQPREEQFNSTFRSVSELPIMHQDWLNGKEFKCRVNSAAFPAPIEKTISKTKGRPKAPQVYTIPPPKEQMAKDKVSLTCMITDFFPEDITVEWQWNGQPAENYKNTQPIMNTNGSYFVYSKLNVQKSNWEAGNTFTCSVLHEGLHNHHTEKSLSHSPGK
light: DIQMTQSPSSLSASLGERVSLTCRASQEISDYLSWLQQKPDGTIKRLIFAASTLDSGVPKRFSGSRSGSDFSLSISSLESEDFADYYCLQYASYPYTFGSGTKLEIKRADAAPTVSIFPPSSEQLTSGGASVVCFLNNFYPKDINVKWKIDGSERQNGVLNSWTDQDSKDSTYSMSSTLTLTKDEYERHNSYTCEATHKTSTSPIVKSFNRNEC
notes: also called D312; DL312 mouse antibody
B2: DL301 mouse monoclonal antibody (antibody, mouse IgG1, kappa)
heavy: QVQLQQSGADLVRPGTSVKVSCKASGYAFTNYLIEWIKQRPGQGLEWIGVMNPGSGGTHYSEKFRGKATLTADKSSSTAYMQLISLTSDDSAVYFCARSDYDYVTYAMDYWGQGTSVTVSSAKTTPPSVYPLAPGSAAQTNSMVTLGCLVKGYFPEPVTVTWNSGSLSSGVHTFPAVLQSDLYTLSSSVTVPSSTWPSETVTCNVAHPASSTKVDKKIVPRDCGCKPCICTVPEVSSVFIFPPKPKDVLTITLTPKVTCVVVDISKDDPEVQFSWFVDDVEVHTAQTQPREEQFNSTFRSVSELPIMHQDWLNGKEFKCRVNSAAFPAPIEKTISKTKGRPKAPQVYTIPPPKEQMAKDKVSLTCMITDFFPEDITVEWQWNGQPAENYKNTQPIMNTNGSYFVYSKLNVQKSNWEAGNTFTCSVLHEGLHNHHTEKSLSHSPGK
light: DIKMTQSPSSMYASLGERVTITCKASQDINSYLIWFQQKPGKSPKTLIYRTNRLVDGVPSRFSGSGSGQDYSLTISSLEYGDMGIYYCLQYDEFPFTFGSGTKLEIKRADAAPTVSIFPPSSEQLTSGGASVVCFLNNFYPKDINVKWKIDGSERQNGVLNSWTDQDSKDSTYSMSSTLTLTKDEYERHNSYTCEATHKTSTSPIVKSFNRNEC
notes: also called DL301 mouse antibody
B3: DL306 mouse monoclonal antibody (antibody, mouse IgG1, kappa)
heavy: EVQLQQSGPELVKPGASVKMSCRASGYTFTDYYMKWVKQSHGKSLEWIGDINPNNGDTFYNQKFKGKATLTIDKSSSTAYMQLNSLTSDDSAVYYCARDGNYAYFDYWGQGTTLTVSSAKTTPPSVYPLAPGSAAQTNSMVTLGCLVKGYFPEPVTVTWNSGSLSSGVHTFPAVLQSDLYTLSSSVTVPSSTWPSETVTCNVAHPASSTKVDKKIVPRDCGCKPCICTVPEVSSVFIFPPKPKDVLTITLTPKVTCVVVDISKDDPEVQFSWFVDDVEVHTAQTQPREEQFNSTFRSVSELPIMHQDWLNGKEFKCRVNSAAFPAPIEKTISKTKGRPKAPQVYTIPPPKEQMAKDKVSLTCMITDFFPEDITVEWQWNGQPAENYKNTQPIMNTNGSYFVYSKLNVQKSNWEAGNTFTCSVLHEGLHNHHTEKSLSHSPGK
light: DIVLTQSPASLAVSLGQRATISCRASKSVSTSGYSYMHWYQQKPGQPPKLLIFLASNLESGVPARFSGSGSGTDFTLNIHPVEEEDAATYYCQHSRHLPWTFGGGTKLEIKRADAAPTVSIFPPSSEQLTSGGASVVCFLNNFYPKDINVKWKIDGSERQNGVLNSWTDQDSKDSTYSMSSTLTLTKDEYERHNSYTCEATHKTSTSPIVKSFNRNEC
notes: also called DL306 mouse antibody
B4: DL309 mouse monoclonal antibody (antibody, mouse IgG1, kappa)
heavy: QVQLQQSGGDLMKPGASVKISCKAAGYTFSNYYIEWVKQRPGHGLEWIGEILPGSGSTTYNEKFKGKASFTADTSSNTAYMQLSSLTSEDSAVYYCARWGAREPGFPYWGQGTLVTVSAAKTTPPSVYPLAPGSAAQTNSMVTLGCLVKGYFPEPVTVTWNSGSLSSGVHTFPAVLQSDLYTLSSSVTVPSSTWPSETVTCNVAHPASSTKVDKKIVPRDCGCKPCICTVPEVSSVFIFPPKPKDVLTITLTPKVTCVVVDISKDDPEVQFSWFVDDVEVHTAQTQPREEQFNSTFRSVSELPIMHQDWLNGKEFKCRVNSAAFPAPIEKTISKTKGRPKAPQVYTIPPPKEQMAKDKVSLTCMITDFFPEDITVEWQWNGQPAENYKNTQPIMNTNGSYFVYSKLNVQKSNWEAGNTFTCSVLHEGLHNHHTEKSLSHSPGK
light: DIVMTQSQKFMSTSVGDRVSVTCKASQNVGTNVAWYQQKPGQSPKALIYSASYRYSGVPDRFTGSGSGTDFTLTISNVQSEDLAEYFCQQYNNYPLTFGAGTKLELKRADAAPTVSIFPPSSEQLTSGGASVVCFLNNFYPKDINVKWKIDGSERQNGVLNSWTDQDSKDSTYSMSSTLTLTKDEYERHNSYTCEATHKTSTSPIVKSFNRNEC
notes: also called DL309 mouse antibody

Target: T1, human DLL3 expressed on cells (human …)
Experiment: flow cytometry on human DLL3/BaF3 cells, antibody 5 µg/ml
Protocol: The binding of each monoclonal antibody to human DLL3 expressed on a cell membrane and the behavior of a human DLL3-monoclonal antibody complex on the cell membrane were analyzed by flow cytometry. Human DLL3/BaF3 cells were suspended in a FACS buffer (PBS containing 1% fetal bovine serum and 0.05% sodium azide). The cell suspension of 1×10⁶ cells/ml was reacted with the monoclonal antibody (final concentration: 5 μg/ml) at 4° C. for 30 minutes. After centrifugation and supernatant removal, the cells were washed once with a FACS buffer. FITC-labeled anti-mouse IgG (H+L) antibodies (Beckman Coulter, Inc.) were added thereto and incubated at 4° C. for 30 minutes. Unreacted FITC antibodies were removed by centrifugation. Then, the cells were resuspended and analyzed using a flow cytometer FACSCalibur (Becton, Dickinson and Company). For the purpose of analyzing the movement or disappearance of the DLL3-antibody complex from the cell membrane, human DLL3/BaF3 cells were suspended in an RPMI1640 culture medium containing 10% fetal bovine serum (FBS) and mouse IL3. The cell suspension of 1×10⁶ cells/ml was mixed with the monoclonal antibody (final concentration: 5 μg/ml) and reacted at 37° C. for 1 hour or 4 hours in a CO2 incubator. After the reaction, the amount of the antibody bound onto the cell membrane was analyzed by flow cytometry in the same way as above. The geometric mean of fluorescence intensity values (X Geo Mean) in a cell histogram plot was determined using the analytical software CELLQuest Pro included in FACSCalibur. All the isolated anti-DLL3 monoclonal antibodies bound to DLL3 on the cells (FIG. 3(a)). The reaction of the antibody with the cells at 4° C. inhibits membrane fluidity such as the cellular uptake of the DLL3-antibody complex from the cell membrane. The reaction of the antibody with the cells at 37° C. may cause the cellular uptake of the DLL3-antibody complex and shading (release from the cell membrane) resulting from protease digestion or the like. The amount of each monoclonal antibody bound onto the cell membrane as a result of incubation at 37° C. for 1 hour or 4 hours is shown in FIG. 3(b) as a relative value compared with that at 4° C. As a result of incubation at 37° C., the amount of the antibody DL303, DL304, DL305, DL308, DL309, or MAB4315 on the surface of the cell membrane was decreased.

Binding result, binds:
B1
B2
B3
B4

Target: T2, human DLL3-Fc
Experiment: ELISA, immobilized human DLL3-Fc
Protocol: The competition of a chimeric antibody and a mouse antibody for binding to the antigen molecule was analyzed by ELISA (FIG. 8 (b)). Human DLL3-Fc was added at 10 ng/well to a Nunc immunoplate and immobilized thereon. A mixture (final concentration: 50 ng/ml) of the chimeric antibody and the appropriately diluted mouse antibody was added to the DLL3-Fc protein-immobilized plate. The plate was incubated at room temperature for 1 hour and then washed. Alkaline phosphatase-labeled anti-human antibodies were added thereto and incubated. After the incubation, Sigma 104 was added thereto, and the absorbance was measured. The binding of the chimeric antibody to the antigen molecule competed with that of the original mouse monoclonal antibody thereto.

Binding result, binds:
B1
B2
B3
B4

Reference: patent US20250236679A1 (Chugai, published 2025)
